The nature of the data set: soluble on expression in E. coli; label from the status in PepcDB or PDB records.
For the sequence “HHHHHSSGLVPRGSHMTNPAYFPQLSQLDVSGEMESTYEDIRLTLRVPWVAFGCRVLATFPGYLPLAWRRSAEALITRYAEQAADELRERSLLNIGPLPNLKERLYAAGFDDGEIEKVRRVLYAFNYGNPKYLLLITALSESMQMRPVGGAEVSSELRASIPKGHPKGMDPLLPLVDATKASTEVQGLLKRVADLHYHHGPASDFQALANWPKVLQIVTDEVLAPVARTEQYDAKSRELVTRARELVRGLPGSAGVQRSELMSMLTPNELAGLTGVLFMYQRFIADITISIIHITECLDGAEAASKSPFPI”, the “soluble on expression in E. coli” value is “soluble”.

For the sequence “HHQELCTKGDDALVTELECIRLRISPETNAAFDNAVQQLNCLNRACAYRKMCATNNLEQAMSVYFTNEQIKEIHDAATACDPEAHHEHDH”, the “soluble on expression in E. coli” value was “soluble”.

For “HMAKATTIKDAIRIFEERKSVVATEAEKVELHGMIPPIEKMDATLSTLKACKHLALSTNNIEKISSLSGMENLRILSLGRNLIKKIENLDAVADTLEELWISYNQIASLSGIEKLVNLRVLYMSNNKITNWGEIDKLAALDKLEDLLLAGNPLYNDYKENNATSEYRIEVVKRLPNLKKLDGMPVDVDEREQANVARGG”, the “soluble on expression in E. coli” value is “soluble”.

On to “HPWQRASVWAEILPSILFRTDFTNAQDEPDEMSSKLHRRSSFQPAFQVGVAYRVSDHMGIEAHAGYQLGEAVYHLMEETSTWSIIKKRATVPYRGFEFAVGLQFYPFR”, for which the “soluble on expression in E. coli” value is recorded as “not soluble”.

Regarding “IAQQTEETVVEVETVTGFGANDAILDIRSIDEQEDKPLKVEGVEVVSLPFYKLSTKFGDLDQSKTWLLWCERGVMSRLQALYLREQGFSNVKVYR”, the “soluble on expression in E. coli” value is “not soluble”.

For the sequence “IEDEVIYSKKRYKLKREIDKLFLDEEYFQIEPQLFEEYDEFTTINNKIPEESMVKVVNGKVMVLRADITTSIIKSLVPRWEDGLKLKLFYNSSIYKNKNTVGIKEIRQIGCEYLGEASVEADREVVKLALKILEKYNNNFILEVGSSKYIHGLLEELNLNKNCENQIKNLLYTKNTHELKVYIEELKIKHEVKELLSNILSLQGNLYNVIEKSNKFYCNNKMKQALEELKQVNNLIEECNFLDKARFDLSMITMLDYYEGIMFRGYYPNSYKEILSGGRYDSLTKEYGKEIPAIGFTLSVDELMKYVYK”, the “soluble on expression in E. coli” value is “not soluble”.

For the sequence “IEEVYEATLDAIQGALNCDRASILLFDEAGTMRFVAARGLSEHYQRAVDGHSPWITGANEPEPIFVENVDDAEFSRELKESIVGEGIAALGFFPLVTEGRLIGKFMTYYDRPHRFADSEIGMALTIARQLGFSIQRMRAEYARRQAEE”, the “soluble on expression in E. coli” value is “soluble”.

In the case of “IEKNQIDMANGQELLISESLAVSQATTTFIDQLRILAPFGTDNTVPTFVFKEITPTQIRQIGADNAHLKFQMNQEGAQLDAIAFQMGPQADELAQGTADVAGQLSINEWNGRKKPQ”, the “soluble on expression in E. coli” value was “not soluble”.

In the case of “IENYHVEEAENDLTQLANKVAVILENHEDQALARSITWELADNLTSIAIIQDEKNHWYSPNDKNRLSSITVEQIQHDKDLNKALKDHKKVSKRTGLSDTDTDNERLIVGVPYEKDGKKGMVFLSQSLLAVKDTTKHTTR”, the “soluble on expression in E. coli” value is recorded as “not soluble”.

For “ILKELENLSPEEAAHQKAVVETLLQEDPWRVAKMVKSYLQQHNIPQREVVDTTGLNQSHLSQHLNKGTPMKTQKRAALYTWYVRKQREVAQQFTHAGQGGLIEEPTGDELPTKKGRRNRFKWGPASQQILFQAYERQKNPSKEERETLVEECNRAECIQRGVSPSQAQGLGSNLVTEVRVYNWFANRRKEEAFR”, the “soluble on expression in E. coli” value is on record as “soluble”.

Consider “INLPWYLSPIAIPVTQILSAVSPLPRYAPGHKPYFPKPFEDNPLSQSAGRYQWFRNLYTEKPELQVGGPSTRWVWQGLMAAKQCFLLTRQVKVPVLLVQAGNDRIVSNLAQKRFIEKLRKTNPHAALLSIEGAQHEILFETDQYRNQALDAIFRFMDDPTSSSDEKMQ”, for which the “soluble on expression in E. coli” value was “not soluble”.

Turning to “ISAVIVGTAEDIYSRVLALMCQRKGAVSICLQHGALMGDEAFIPVFTTYQAVFGAYEAEWFIRKGCKPEQILVTGHPRFDQIFNRTPMDMSIFYRKLAFQPTKKIVLIATQPFSEDFYSGVLQGLSDQKQLQIIIKPHPWEIGKNKLDLYHEAAKKHQACRVIKKELELYDLLPYVDAAVTQTSTVGLEAMLFQKPVLIGKSSGNRSYPYYESLGDFMFDQPDELAHTLVEVLRSP”, the “soluble on expression in E. coli” value was “not soluble”.

As to “ITERRQRQQRIEALHDTTRELMHVESREAAAELVVETARDLLGLPLSAVFLADESADALRPTAVTDQAQAIIDDHPTFSEGDSLVWEVFDSGEQRVFNDVSTHPNRYNPDTDVCSELLIPLGDHGVLIAASTDAAAFEDASVSLMRTLAANTEEALSRLDRQQELRTLTER”, the “soluble on expression in E. coli” value was “not soluble”.

Turning to “ITLKYNYTVTLKDDGLYDGVFYDHYNDQLVTKISYNHETRHGNVNFRADWFNISRSPHTPGNDYNFNFWYSLMKETLEEINKNDSTKTTSLSLITGCYETGLLFGSYGYVETANGPLARYHTGDKRFTKMTHKGFPKVGMLTVKNTLWKDVKAYLGGFEYMGCSLAILDYQKMAKGKIPKDTTPTVKVTGNELEDGNMTLECTVNSFYPPDVITKWIESEHFKGEYKYVNGRYYPEWGRKSNYEPGEPGFPWNIKKDKDANTYSLTDLVRTTSKMSSQPVCVVFHDTLEAQVYTCSEGCNGELYDHLYRKTEEGEGGSHHHHHH”, the “soluble on expression in E. coli” value is “soluble”.

As for “ITLNSEPKCINNIKSGQYERYDTNNTELNRVLGGGLVKGSITLISGAPGIGKSTLLLQICQDIALKYGKVLYVSGEESEHQIKMRGDRLGVTSANIYILAETNMESIERHVENIKPAFVIIDSIQTLYKDQITSAPGSVSQVRECANDIMRIAKTDNIPFFIVAHVTKQGELAGPRVLEHIVDTVLTFEGQRTEEFRILRTVKNRFGTTSEIGVFEMKEEGL”, the “soluble on expression in E. coli” value was “not soluble”.

Turning to “IVGLRVGAAAEFALSNDGFYLAPGLAYTMRGAKMESLSETTTRLHYLQIPVNAGMRFSFADNMAISLEAGPYFAYGVAGTIKTKVAGVTASVDAFGDNGYNRFDLGLGLSAALSYDRYYVQIGYEHGLLNMLKDAPDKTSLRNHDFFVGLGVRF”, the “soluble on expression in E. coli” value is given as “not soluble”.

In the case of “KDTIALVVSTLNNPFFVSLKDGAQKEADKLGYNLVVLDSQNNPAKELANVQDLTVRGTKILLINPTRSDAVGNAVKMANQANIPVITLDRQATKGEVVSHIASDNVLGGKIAGDYIAKKAGEGAKVIELQGIAGTSAARERGEGFQQAVAAHKFNVLASQPADFDRIKGLNVMQNLLTAHPDVQAVFAQNDEMALGALRALQTAGKSDVMVVGFDGTPDGEKAVNDGKLAATIAQLPDQIGAKGVETADKVLKGEKVQAKYPVDLKLVVKQ”, the “soluble on expression in E. coli” value is given as “soluble”.

Turning to KEKARAMRVNKRAPQMDWNRKREIFSNF, the “soluble on expression in E. coli” value is on record as “soluble”.

In the case of “KEQILSSEQLARKMMLELGDKKQEHLVAIYMDTQNRIIEQRTIFIGTVRRSVAEPREILHYACKNMATSLIIIHNHPSGSPKPSESDLSFTKKIKRSCDHLGIVCLDHIIVGKNKYYSFREEADIL”, the “soluble on expression in E. coli” value was “soluble”.

Take “KGDVDEKLLDKGIEAVLDQTDYVNGGFGSAPKFHHAKAVELLLTHHFFTGDEEVLKAAEITLDAMARGGIYDHLLGGFFRYSTDAKWVTPHYEKMLYDNAELLYLYSIAYALTGKRLYQKIADGIVEYYRKFGCSNEGGFYASQDADIGELDEGGYYLFSDRELKEILDEREFRIATLYYDIQGERKLPRIFLTEEEISKILGVSVEEVERAVNSARRKMLEFREQREMPYIDTTIYAGWNGLMIEALCMHHKVFGDNWSLEMAEKTANRLLKEFWDGRELLHTHNVEGLSEDYIFFARGLLALFEVTQRHEYLEKCFEIVDSAVEKFWDGEDGGFFD”: the “soluble on expression in E. coli” value is on record as “not soluble”.

Take “KGIFSWESALTATYNKNEILDLNSETPMFINQIGNSYVTMLKAGYPINVFYGYVTDGLFQNWGEVNRHATQPGAAPGDIRFRDLNNDGVINDEDRTILGNPNPNWFFSLSNNLSYKGWELSVFLQGVAGNKIYNANNVDNEGMAAAYNQTTAVLNRWTGEGTSYSMPRAIWGDPNQNCRVSDRFVENGSYLRLKNITLSYTLPKKWLQKIQLENARISFSCENVATITRYSGFDPEVDVNGIDSSRYPISRTFSMGLNFNF”: the “soluble on expression in E. coli” value was “not soluble”.

For the sequence “KGYDSHKIALAQSETEMRNLSHSLAEHATHTFQGADVVLDDIVSFMKWRPHPSPVFNERLRALADNLPQLSDVAILDADGQLTYASVKPVPALDNSDRSYFRYHRANDDHTLLITGPIQSRTSGVWVFVVSRRLETTDGKFFGVVVATIESEYFSTFYKTFDLGPGGSISLLHSDGRLLIQWPSLQTGRDMANMVLFQKALPRSPDGYYLTVSPFDGLTKYLAYRRVSRYPLVVTVARTEDSVLSGWREAVRSD”, the “soluble on expression in E. coli” value is on record as “soluble”.

In the case of “KIYSGRILIPLQHILKELKRIRANSLNRRLKTTGNNDELEDMIETLNSMLDRLDSAFKAEKSFVSHASHELNNPITAIQGECEISLLKERSTGEYIEALQRISSESKRISNLIRHLLFLSRQDEELIKSNMEAMSLPDMLNDLIKMNERIRLHYQETGKAAT”, the “soluble on expression in E. coli” value is recorded as “not soluble”.

In the case of “KKDFTWNATVNFSSNQSKVLSLGAETQMLEGRPVGSASGSENVLIKKGYPLGLFYGLQMEGIRSNWHSDYNGIGSADSPWWYATEREMPYGFPSFADTNGDGKVDMSDRVVIGDVNPVFIGGLNTRLRWKFIELAMDFSWSYGNDIINGNVYNLMNNGDIRNKSAVYYKDAWFANNPTGTFTGPGAIDWSGYMWAASNSEMVEDGSFLKMNNLAVTFRMPKNILKAWKIKDLALTYTINNVFCLTNYSGYDPEVRSGSSVNNRILPGVDISAYPYARSHIFSLNFKY”, the “soluble on expression in E. coli” value was “not soluble”.

Take “KKISQYACQRRTTLNNYNQLFTDALDILAENDELRENEGSCLAFMRASSVLKSLPFPITSMKDTEGIPCLGDKVKSIIEGIIEDGESSEAKAVLNDERYKSFKLFTSVFGVGLKTAEKWFRMGFRTLSKIQSDKSLRFTQMQKAGFLYYEDLVSCVNRPEAEAVSMLVKEAVVTFLPDALVTMTGGFRRGKMTGHDVDFLITSPEATEDEEQQLLHKVTDFWKQQGLLLYCDILESTFEKFKQPSRKVDALDHFQKCFLILKLDHGRVHSEKSGQQEGKGWKAIRVDLVMCPYDRRAFALLGWTGSRQFERDLRRYATHERKMMLDNHALYDRTKRVFLEAESEEEIFAHLGLDYIEPWERNA”: the “soluble on expression in E. coli” value is reported as “soluble”.

As to “KLKIVEVPQEELFRDDDLLKSVYGILVTAHYRNSPDDLMLLGDMAFQKVIVGYSSENPVAVCQVVYEGGLTDKQIWDISNGLKNEGHLIPHRLIKYMRALDFGKLKGWRIMRIAVSPENQGKGIGSRVIEEVIKMAKGVDWIGSSFVADYSVLRFWIKNGFLPVYLSSIKNEE”, the “soluble on expression in E. coli” value was “not soluble”.

Turning to “KNAELSIKLNKEEYQANEDIEIQITAPYTGSGLITIERDKVYAVHWFKTEAQNSVQTIRIPADFQGNGYVNVAFIRDWESPELFISPLSYSVAPFNVNHDKHDIKIGLKTPELARPGESFTIDYHTDKPGKIIVFAVDEGILQVANY”, the “soluble on expression in E. coli” value is on record as “not soluble”.

Regarding “KRKEMISARLGDGLSYLYMASATLKKYEDEGRQQGDLNFVHYAVQYCLYNAAKSLNEAYANFPVKYVGGVLKGLLFPLGNHFDKPSDELSVSIAEAMMTPGVQRDRLTHLCYIGKSENDSVGLMENAFLAMYDVKPLERKLMKAAKDGKVARKGLLPDRLQQALDAGVLTEQEVEKITAADQLRYKAIQVDHFSHDFSEVRTDSPKKSHLNPAA”, the “soluble on expression in E. coli” value is “not soluble”.

These data come from the DeepSol protein solubility set.
